# Publication PMC5028935, “De novo synthesis of fatty acids is regulated by FapR protein in Exiguobacterium antarcticum B7, a psychrotrophic bacterium isolated from Antarctica”
# T1: FapR (Exiguobacterium antarcticum B7, UniProt A0ABT6QZ49 1-189)
# T1 sequence: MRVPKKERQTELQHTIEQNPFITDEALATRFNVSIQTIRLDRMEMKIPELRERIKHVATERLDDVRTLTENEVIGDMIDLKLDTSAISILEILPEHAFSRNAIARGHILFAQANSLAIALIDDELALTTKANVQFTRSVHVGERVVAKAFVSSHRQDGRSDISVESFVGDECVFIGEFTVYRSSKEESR
# Molecular target: T1, FapR
# Experiment: EMSA; 2, 2.8, 3.8 and 4.5 uM protein; no shift; 10 mM Tris-HCl (pH not given), 0.2 mM DTT, 0.2 mM EDTA, 0.25 mM KCl (so in the source), 1 h on ice; 7.5% native PAGE, SYBR Safe stain
# Details: protein: recombinant; (pET-46 Ek/LIC vector adds a His tag); chain copies: 2
binder,measurement,value
"fapR-plsX-fabD-fabG promoter, synthesized up to the palindrome (dsDNA) DNA 1: TACTTGAAAGTGAACAACAAGGGATATATACTACTATTAGTACCAGGTAATAA DNA 2: TTATTACCTGGTACTAATAGTAGTATATATCCCTTGTTGTTCACTTTCAAGTA",binding result,no binding
